B1: CAP256V2LS (antibody, V domains shown)
VH: QVQLVESGGGVVQPGTSLRLSCAASQFRFDGYGMHWVRQAPGKGLEWVASISHDGIKKYHAEKVWGRFTISRDNSKNTLYLQMNSLRPEDTALYYCAKDLREDECEEWWSDYYDFGAQLPCAKSRGGLVGIADNWGQGTMVTVSS
VL: QSVLTQPPSVSAAPGQKVTISCSGNTSNIGNNFVSWYQQRPGRAPQLLIYETDKRPSGIPDRFSASKSGTSGTLAITGLQTGDEADYYCATWAASLSSARVFGTGTQVIVLG
B2: J3 nanobody (VHH)
VHH: EVQLVESGGGLVQAGGFLRLSCELRGSIFNQYAMAWFRQAPGKEREFVAGMGAVPHYGEFVKGRFTISRDNAKSTVYLQMSSLKPEDTAIYFCARSKSTYISYNSNGYDYWGRGTQVTVSS

Experiments:
[1] = target: BG505 DS-SOSIP.664 Env trimer (HIV-1); assay: ITC, 37 C, PBS pH 7.4, antibody titrated into trimer
[2] = target: CAP256 soluble Env trimer (clade C), stabilized in the prefusion-closed conformation (HIV-1); assay: ELISA, lectin-captured trimer, expression supernatant, single point, OD 450 nm
[3] = target: JRFL soluble Env trimer (clade B), stabilized in the prefusion-closed conformation (HIV-1); assay: as above
[4] = target: K169V variant of CAP256 soluble Env trimer (HIV-1); assay: as above
[5] = target: 426C-WITO soluble Env trimer (clade B), stabilized in the prefusion-closed conformation (HIV-1); assay: ELISA, lectin-captured trimer, expression supernatant, single point, OD 450 nm, column 426c-WITO-degly3
[6] = target: BG505 DS-SOSIP.664 Env trimer (HIV-1); assay: ITC, 37 C, PBS pH 7.4, nanobody titrated into trimer

| Binder | -TΔS [1] | Kd [1] | N (stoichiometry) (Antigen Binding Sites per Trimer) [1] | ΔG [1] | ΔH [1] | ELISA binding [2] | ELISA binding [3] | ELISA binding [4] | ELISA binding [5] | -TΔS [6] | Kd [6] | N (stoichiometry) (Antigen Binding Sites per Trimer) [6] | ΔG [6] | ΔH [6] |
| --- | --- | --- | --- | --- | --- | --- | --- | --- | --- | --- | --- | --- | --- | --- |
| B1 | 15 kcal/mol | 34 nM | 1 | -10.6 kcal/mol | -25.6 kcal/mol | 2.16 | 0.361 | 2.42 | 0.382 | – | – | – | – | – |
| B2 | – | – | – | – | – | – | – | – | – | 1.4 kcal/mol | 92 nM | 3.1 | -10 kcal/mol | -11.4 kcal/mol |
